Assay results: paper PMC2788424, “The 3′-Phosphoadenosine 5′-Phosphosulfate Transporters, PAPST1 and 2, Contribute to the Maintenance and Differentiation of Mouse Embryonic Stem Cells” (PLoS ONE, 2009)

B1: PAPST2 (Mus musculus) (protein)
chain: MDLKFNNSRKYVSISVPSKTQAMSPHIKSVEDVVVLGVNLSKFSKLTQFLICVAGVFVFYLIYGYLQELIFSVEGFKPYGWYLTLVQFAFYSVFGLIELQLTQDRRRRIPGKTYMLIAFLTVGTMGLSNTSLGYLNYPTQVIFKCCKLIPVMLGGVFIQGKRYNLADVSAAVCMSLGLIWFTLADSTIAPNFNLTGVMLISLALCADAVIGNVQEKAMKLHNASNSEMVLYSYSIGFVYILLGLSCTSGLGPAVAFCSKNPVGTYGYAFLFSLTGYFGISFVLALIKIFGALLAVTVTTGRKAMTVVLSFLFFAKPFTFQYIWSGLLVVLGIFLNVYSKNMDKIRLPSVYNMIKKAMDMKKSRTLAQTV
B2: PAPST1 (Mus musculus) (protein)
chain: MDARWWAVVVLATLPSLGAGGESPEAPPQSWTQLWLFRFLLNVAGYASFMVPGYLLVQYLRRKNYLETGRGLCFPLVKACVFGNEPKAPDEVLLAPRTETAESTPSWQVLKLVFCASGLQVSYLTWGILQERVMTGSYGATATSPGEHFTDSQFLVLMNRVLALVVAGLYCVLRKQPRHGAPMYRYSFASLSNVLSSWCQYEALKFVSFPTQVLAKASKVIPVMMMGKLVSRRSYEHWEYLTAGLISIGVSMFLLSSGPEPRSSPATTLSGLVLLAGYIAFDSFTSNWQDALFAYKMSSVQMMFGVNLFSCLFTVGSLLEQGALLEGARFMGRHSEFALHALLLSICSAFGQLFIFYTIGQFGAAVFTIIMTLRQAIAILLSCLLYGHTVTVVGGLGVAVVFTALLLRVYARGRKQRGKKAVPTEPPVQKV

Substrate: Nc1ncnc2c1ncn2[C@@H]1O[C@H](COP(=O)(O)OS(=O)(=O)O)[C@@H](OP(=O)(O)O)[C@H]1O
Experiment: cells, lysate or membranes
Format: biochemical, Mus musculus
Conditions: labelled compound, 20 mM Tris-HCl pH 7.5, 0.25 M sucrose, 5 mM MgCl2, 1 mM MnCl2, 10 mM 2-mercaptoethanol, 32°C, 5 min

Protein	Km [µM]
B1	1.49
B2	1.54
